Where two headings read alike, the source gives them in different places.
Key:
[1] = target: recombinant and mature MDA1 (Arabidopsis thaliana) (UniProt F4JVI3); test: SEC
rMDA1 (mature MDA1) [2] = target: T1, rMDA1 (mature MDA1) (Arabidopsis thaliana, UniProt F4JVI3 44-493); test: EMSA
T1 sequence: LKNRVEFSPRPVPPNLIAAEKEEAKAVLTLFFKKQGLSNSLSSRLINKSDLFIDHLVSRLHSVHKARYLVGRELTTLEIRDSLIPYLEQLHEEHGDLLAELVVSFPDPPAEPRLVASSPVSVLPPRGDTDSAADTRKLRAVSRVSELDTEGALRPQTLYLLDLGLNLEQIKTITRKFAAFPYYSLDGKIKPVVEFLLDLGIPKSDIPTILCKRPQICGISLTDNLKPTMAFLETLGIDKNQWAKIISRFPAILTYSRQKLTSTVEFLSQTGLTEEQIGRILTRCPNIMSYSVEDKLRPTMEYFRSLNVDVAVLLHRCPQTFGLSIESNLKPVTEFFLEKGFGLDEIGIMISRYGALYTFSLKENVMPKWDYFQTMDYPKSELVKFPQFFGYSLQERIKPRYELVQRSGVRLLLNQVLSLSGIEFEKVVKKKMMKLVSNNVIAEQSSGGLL

rMDA1 (mature MDA1) [3] = target: T1, rMDA1 (mature MDA1); test: EMSA; remark: listed apart in the source
rMDA1 (mature MDA1) [4] = target: T1, rMDA1 (mature MDA1); test: EMSA; remark: listed apart in the source
rMDA1 (mature MDA1) [5] = target: T1, rMDA1 (mature MDA1); test: EMSA; remark: listed apart in the source
rMDA1 (mature MDA1) [6] = target: T1, rMDA1 (mature MDA1); test: EMSA; remark: listed apart in the source

recombinant and mature MDA1 (from UniProt F4JVI3 130-493) (domain or fragment)
stoichiometry N [1]: 2

GATATGCGCGAATTCCTGTAGAACGAACACTAGAAGAAA (ssDNA) [ssDNA random probe]
binding result (rMDA1 (mature MDA1) [2]): no binding

B1: dsDNA random probe (dsDNA)
DNA 1: GATATGCGCGAATTCCTGTAGAACGAACACTAGAAGAAA
DNA 2: TTTCTTCTAGTGTTCGTTCTACAGGAATTCGCGCATATC
binding result (rMDA1 (mature MDA1) [3]): binds

B2: psbE E4 (dsDNA)
DNA 1: ATTGACGATCTCACAAAGATGCAATCT
DNA 2: AGATTGCATCTTTGTGAGATCGTCAAT
binding result (rMDA1 (mature MDA1) [4]): binds

UGGCUGAUAUUAUGACGAUAC (ssRNA) [5' ndhA sRNA]
binding result (rMDA1 (mature MDA1) [5]): no binding

UCUGAUUCGAGGGGGUCCCGUUGAAC (ssRNA) [3' psbJ sRNA]
binding result (rMDA1 (mature MDA1) [5]): no binding

B3: psbE E5 (dsDNA)
DNA 1: TTAATTTACTTATTCATCTTTTACAGA
DNA 2: TCTGTAAAAGATGAATAAGTAAATTAA
binding result (rMDA1 (mature MDA1) [4]): no binding

GUAGACUCUAAAAAUACCCUUGGUACUUU (ssRNA) [5' psbE sRNA]
binding result (rMDA1 (mature MDA1) [5]): no binding

GAUAUGCGCGAAUUCCUGUAGAACGAACACUAGAAGAAA (ssRNA) [ssRNA random probe]
binding result (rMDA1 (mature MDA1) [6]): binds

B4: dsRNA random probe (dsRNA)
RNA 1: GAUAUGCGCGAAUUCCUGUAGAACGAACACUAGAAGAAA
RNA 2: UUUCUUCUAGUGUUCGUUCUACAGGAAUUCGCGCAUAUC
binding result (rMDA1 (mature MDA1) [2]): no binding

GUUUUAAACAAGAGACAGAAACAAAGA (ssRNA) [3' ndhA sRNA]
binding result (rMDA1 (mature MDA1) [5]): no binding

B5: ndhA A10 (dsDNA)
DNA 1: TATTGGGAATCATAACAGGTGTACTAG
DNA 2: CTAGTACACCTGTTATGATTCCCAATA
binding result (rMDA1 (mature MDA1) [4]): binds

From article PMC7496394
